Results: US11760795B2, “Monoclonal antibodies to growth and differentiation factor 15 (GDF-15), and uses thereof for treating cancer cachexia and cancer” (JULIUS-MAXIMILIANS-UNIVERSITÄT WÜRZBURG, priority 2014, dated 2023)

Experiments:
[1] = target: T1, recombinant mature human GDF-15 protein (Homo sapiens, UniProt Q99988); test: Surface plasmon resonance binding to immobilized recombinant mature human GDF-15 (insect cell derived); conditions: GDF-15 derived from insect cell expression; 25° C.; 1:1 Langmuir-type interaction
T1 construct: made in house; host or cells: Baculovirus-transfected HighFive insect cells
T1 sequence (Q99988 with tags, fused parts or gaps): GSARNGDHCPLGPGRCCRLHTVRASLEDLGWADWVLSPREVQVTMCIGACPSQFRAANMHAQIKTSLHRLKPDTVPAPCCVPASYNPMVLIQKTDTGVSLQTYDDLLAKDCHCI
Procedure: Binding of monoclonal anti-human-GDF-15 antibodies according to the invention is generally assessed by employing surface plasmon resonance measurements using a Bio-Rad® ProteOn™ XPR36 system and Bio-Rad® GLC sensor chips as described for murine anti-human GDF-15 mAb-B1-23 in Example 1.
Binding of the monoclonal anti-human-GDF-15 antibody anti-human GDF-15 mAb-B1-23 was measured by employing surface plasmon resonance measurements using a Bio-Rad® ProteOn™ XPR36 system and Bio-Rad® GLC sensor chips:
For preparing the biosensors recombinant mature human GDF-15 protein was immobilized on flow cells 1 and 2. On one flow cell recombinant GDF-15 derived from Baculvirus-transfected insect cells (HighFive insect cells) and on the other recombinant protein derived from expression in E. coli was used. […] The resulting sensogram was analyzed using the software ProteOn Manager version 3.0. […] For the association rate constant a value of 5.4±0.06×10^5 M^−1s^−1 (kon) and for the dissociation rate constant a value of 4.3±0.03×10^−4 s^−1 (koff) could be determined (values are for the interaction of anti-human GDF-15 mAb-B1-23 with GDF-15 derived from insect cell expression).

[2] = target: T2, recombinant mature human GDF-15 protein derived from expression in E. coli (Homo sapiens, UniProt Q99988); test: Surface plasmon resonance binding to recombinant GDF-15 derived from E. coli expression; conditions: SPR
T2 construct: recombinant mature human GDF-15 protein was immobilized on flow cells 1 and 2; made in house; host or cells: E. coli
T2 sequence (Q99988 195-308): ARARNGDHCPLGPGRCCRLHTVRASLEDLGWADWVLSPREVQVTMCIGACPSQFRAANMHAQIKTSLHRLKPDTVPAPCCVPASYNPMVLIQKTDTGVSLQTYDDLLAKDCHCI
From the text: For preparing the biosensors recombinant mature human GDF-15 protein was immobilized on flow cells 1 and 2. On one flow cell recombinant GDF-15 derived from Baculvirus-transfected insect cells (HighFive insect cells) and on the other recombinant protein derived from expression in E. coli was used. The GLC sensor chip was activated using Sulfo-NHS (N-Hydroxysulfosuccinimide) and EDC (1-Ethyl-3-[3-dimethylaminopropyl]carbodiimide hydrochloride) (Bio-Rad® ProteOn™ Amine Coupling Kit) according to the manufacturer's recommendation, the sensor surface was subsequently loaded with the proteins up to a density of about 600RU (1Ru=1 pg mm^−2). The non-reacted coupling groups were then quenched by perfusion with 1M ethanolamine pH 8.5 and the biosensor was equilibrated by perfusing the chip with running buffer ([…], 150 mM NaCl, 3.4 mM EDTA, 0.005% Tween® 20, pH 7.4, referred to as HBS150). […] The resulting sensogram was analyzed using the software ProteOn Manager version 3.0. […] For the association rate constant a value of 5.4±0.06×10^5 M^−1s^−1 (kon) and for the dissociation rate constant a value of 4.3±0.03×10^−4 s^−1 (koff) could be determined (values are for the interaction of anti-human GDF-15 mAb-B1-23 with GDF-15 derived from insect cell expression).

[3] = tested on: melanoma cell line UACC-257; test: UACC-257 melanoma xenograft tumor growth in nude mice; type: in vivo, Balb/c^nu/nu nude mice; conditions: 25 mg/kg i.p. twice a week; 48 days; p<0.05
Procedure: FIG. 4: An anti-tumor effect of murine B1-23 in vivo. Balb/c^nu/nu nude mice were used in a xenograft setting with the melanoma cell line UACC-257. […] Significance was defined as p<0.05 as assessed by Wilcoxon's log-rank test.
To assess an anti-tumor effect of B1-23 in viva, Balb/c^nu/nu nude mice were used in a xenograft setting with the melanoma cell line UACC-257. The mice were treated either with the antibody B1-23 or with PBS. Each treatment cohort contained 10 Balb/c^nu/nu nude mice.
Prior to injection, the UACC-257 melanoma cells were grown in complete medium, excluding any contamination. […] Cells were then washed with PBS and counted. 1×10^7 viable cells were suspended in PBS.
The first injection/treatment was administered in 6 week old Balb/c^nu/nu nude mice. The inoculation area of the mice was cleaned with ethanol. The UACC 257 cells were mixed and drawn into a syringe without a needle, in order to avoid negative pressure on the tumor cells. […]
The intraperitoneal (i.p.) injection of either B1-23 (25 mg/kg body weight) or the same volume of PBS started immediately after the tumor cell inoculation (defined as day 1) and was administered twice a week. […] The tumor diameters were measured with a caliper and the tumor volume in mm^3 was calculated by the formula: Volume=(width)^2×length/2

[4] = target: T3, human GDF-15 precursor on human cells (Homo sapiens, UniProt Q99988); test: Staining experiments on human cells; type: cell-based
T3 construct: endogenous in cells
T3 sequence (Q99988 30-308 limits assumed): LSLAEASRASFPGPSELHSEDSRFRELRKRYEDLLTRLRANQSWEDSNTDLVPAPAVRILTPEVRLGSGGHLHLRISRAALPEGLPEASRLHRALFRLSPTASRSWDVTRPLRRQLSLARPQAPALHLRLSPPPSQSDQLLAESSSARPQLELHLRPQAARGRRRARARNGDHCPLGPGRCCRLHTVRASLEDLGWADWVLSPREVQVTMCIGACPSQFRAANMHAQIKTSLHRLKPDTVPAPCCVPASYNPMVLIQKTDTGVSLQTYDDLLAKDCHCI

[5] = Gel electrophoresis and coomassie staining of antibodies used in study No. 140123; type: physicochemical
Procedure: FIG. 6: Coomassie stain of antibodies used in the study No. 140123.
The quality of the humanized anti-GDF-15 antibody B1-23-H1L5 used in the study was tested by using gel electrophoresis and coomassie staining of the antibodies (see FIG. 6).

[6] = Aggregation study: shaking 48 hours at room temperature, visual analysis for precipitates; type: physicochemical; conditions: PBS, no stabilizing proteins for H1L5
Procedure: In order to test the aggregation properties of anti-GDF-15 antibodies, antibody samples were shaken for 48 hours at room temperature in microcentrifuge tubes, and subsequently, the tubes were visually analyzed for aggregated antibody precipitates.

B1: mAb-B1-23: murine IgG2a (kappa) monoclonal anti-human GDF-15 antibody produced by hybridoma cell line B1-23, DSM ACC3142 (antibody, V domains shown)
VH: QVKLQQSGPGILQSSQTLSLTCSFSGFSLSTSGMGVSWIRQPSGKGLEWLAHIYWDDDKRYNPTLKSRLTISKDPSRNQVFLKITSVDTADTATYYCARSSYGAMDYWGQGTSVTVSS
VL: DIVLTQSPKFMSTSVGDRVSVTCKASQNVGTNVAWFLQKPGQSPKALIYSASYRYSGVPDRFTGSGSGTDFTLTISNVQSEDLAEYFCQQYNNFPYTFGGGTKLEIKRTVA
- association rate constant (kon) [1]: 5.4±0.06×10^5 M^−1s^−1
- dissociation rate constant (koff) [1]: 4.3±0.03×10^−4 s^−1
- deviation of rate constants, GDF-15 from insect cells vs E. coli [2]: about 45%
- tumor size compared to the PBS control group [3]: significantly decreased
- binding to the human GDF-15 precursor on human cells [4]: capable of binding
- band appearance / aggregation in coomassie gel [5]: less sharp and at a higher molecular weight
- tendency to aggregate [6]: can form aggregates
